In publication PMC3892207 (Journal of the American Chemical Society, 2013):

B1: CP-Ser (αβ heterodimer of S100A8(C42S) and S100A9(C3S)) (complex, human)
chain 1: MLTELEKALNSIIDVYHKYSLIKGNFHAVYRDDLKKLLETESPQYIRKKGADVWFKELDINTDGAVNFQEFLILVIKMGVAAHKKSHEESHKE
chain 2: MTSKMSQLERNIETIINTFHQYSVKLGHPDTLNQGEFKELVRKDLQNFLKKENKNEKVIEHIMEDLDTNADKQLSFEEFIMLMARLTWASHEKMHEGDEGPGHHHKPGLGEGTP
B2: CP-Ser-mT (αβ heterodimer) (complex, human | mouse)
chain 1: MLTELEKALNSIIDVYHKYSLIKGNFHAVYRDDLKKLLETESPQYIRKKGADVWFKELDINTDGAVNFQEFLILVIKMGVAAHKKSHEESHKE
chain 2: MTSKMSQLERNIETIINTFHQYSVKLGHPDTLNQGEFKELVRKDLQNFLKKENKNEKVIEHIMEDLDTNADKQLSFEEFIMLMARLTWASHEKMHENNPRGHGHSHGKGCGK
B3: CP-Ser-Δ101 (αβ heterodimer) (complex, human)
chain 1: MLTELEKALNSIIDVYHKYSLIKGNFHAVYRDDLKKLLETESPQYIRKKGADVWFKELDINTDGAVNFQEFLILVIKMGVAAHKKSHEESHKE
chain 2: MTSKMSQLERNIETIINTFHQYSVKLGHPDTLNQGEFKELVRKDLQNFLKKENKNEKVIEHIMEDLDTNADKQLSFEEFIMLMARLTWASHEKMHEGDEGP
B4: CP-Ser(H104A) (αβ heterodimer) (complex, human)
chain 1: MLTELEKALNSIIDVYHKYSLIKGNFHAVYRDDLKKLLETESPQYIRKKGADVWFKELDINTDGAVNFQEFLILVIKMGVAAHKKSHEESHKE
chain 2: MTSKMSQLERNIETIINTFHQYSVKLGHPDTLNQGEFKELVRKDLQNFLKKENKNEKVIEHIMEDLDTNADKQLSFEEFIMLMARLTWASHEKMHEGDEGPGHAHKPGLGEGTP
B5: CP-Ser(H103A) (αβ heterodimer) (complex, human)
chain 1: MLTELEKALNSIIDVYHKYSLIKGNFHAVYRDDLKKLLETESPQYIRKKGADVWFKELDINTDGAVNFQEFLILVIKMGVAAHKKSHEESHKE
chain 2: MTSKMSQLERNIETIINTFHQYSVKLGHPDTLNQGEFKELVRKDLQNFLKKENKNEKVIEHIMEDLDTNADKQLSFEEFIMLMARLTWASHEKMHEGDEGPGAHHKPGLGEGTP
B6: CP-Ser-AHA(K106H) (αβ heterodimer) (complex, human)
chain 1: MLTELEKALNSIIDVYHKYSLIKGNFHAVYRDDLKKLLETESPQYIRKKGADVWFKELDINTDGAVNFQEFLILVIKMGVAAHKKSHEESHKE
chain 2: MTSKMSQLERNIETIINTFHQYSVKLGHPDTLNQGEFKELVRKDLQNFLKKENKNEKVIEHIMEDLDTNADKQLSFEEFIMLMARLTWASHEKMHEGDEGPGAHAHPGLGEGTP
B7: CP-Ser-AAA (αβ heterodimer) (complex, human)
chain 1: MLTELEKALNSIIDVYHKYSLIKGNFHAVYRDDLKKLLETESPQYIRKKGADVWFKELDINTDGAVNFQEFLILVIKMGVAAHKKSHEESHKE
chain 2: MTSKMSQLERNIETIINTFHQYSVKLGHPDTLNQGEFKELVRKDLQNFLKKENKNEKVIEHIMEDLDTNADKQLSFEEFIMLMARLTWASHEKMHEGDEGPGAAAKPGLGEGTP
B8: CP-Ser-AAA(L109H)(E111H) (αβ heterodimer) (complex, human)
chain 1: MLTELEKALNSIIDVYHKYSLIKGNFHAVYRDDLKKLLETESPQYIRKKGADVWFKELDINTDGAVNFQEFLILVIKMGVAAHKKSHEESHKE
chain 2: MTSKMSQLERNIETIINTFHQYSVKLGHPDTLNQGEFKELVRKDLQNFLKKENKNEKVIEHIMEDLDTNADKQLSFEEFIMLMARLTWASHEKMHEGDEGPGAAAKPGHGHGTP
B9: CP-Ser(D98A) (αβ heterodimer) (complex, human)
chain 1: MLTELEKALNSIIDVYHKYSLIKGNFHAVYRDDLKKLLETESPQYIRKKGADVWFKELDINTDGAVNFQEFLILVIKMGVAAHKKSHEESHKE
chain 2: MTSKMSQLERNIETIINTFHQYSVKLGHPDTLNQGEFKELVRKDLQNFLKKENKNEKVIEHIMEDLDTNADKQLSFEEFIMLMARLTWASHEKMHEGAEGPGHHHKPGLGEGTP
B10: CP-Ser-AAE (αβ heterodimer) (complex, human)
chain 1: MLTELEKALNSIIDVYHKYSLIKGNFHAVYRDDLKKLLETESPQYIRKKGADVWFKELDINTDGAVNFQEFLILVIKMGVAAHKKSHEESHKE
chain 2: MTSKMSQLERNIETIINTFHQYSVKLGHPDTLNQGEFKELVRKDLQNFLKKENKNEKVIEHIMEDLDTNADKQLSFEEFIMLMARLTWASHEKMHEGDEGPGAAEKPGLGEGTP
B11: CP-Ser(E99A) (αβ heterodimer) (complex, human)
chain 1: MLTELEKALNSIIDVYHKYSLIKGNFHAVYRDDLKKLLETESPQYIRKKGADVWFKELDINTDGAVNFQEFLILVIKMGVAAHKKSHEESHKE
chain 2: MTSKMSQLERNIETIINTFHQYSVKLGHPDTLNQGEFKELVRKDLQNFLKKENKNEKVIEHIMEDLDTNADKQLSFEEFIMLMARLTWASHEKMHEGDAGPGHHHKPGLGEGTP
B12: CP-Ser-AAA(K106H) (αβ heterodimer) (complex, human)
chain 1: MLTELEKALNSIIDVYHKYSLIKGNFHAVYRDDLKKLLETESPQYIRKKGADVWFKELDINTDGAVNFQEFLILVIKMGVAAHKKSHEESHKE
chain 2: MTSKMSQLERNIETIINTFHQYSVKLGHPDTLNQGEFKELVRKDLQNFLKKENKNEKVIEHIMEDLDTNADKQLSFEEFIMLMARLTWASHEKMHEGDEGPGAAAHPGLGEGTP
B13: CP-Ser-AHA (αβ heterodimer) (complex, human)
chain 1: MLTELEKALNSIIDVYHKYSLIKGNFHAVYRDDLKKLLETESPQYIRKKGADVWFKELDINTDGAVNFQEFLILVIKMGVAAHKKSHEESHKE
chain 2: MTSKMSQLERNIETIINTFHQYSVKLGHPDTLNQGEFKELVRKDLQNFLKKENKNEKVIEHIMEDLDTNADKQLSFEEFIMLMARLTWASHEKMHEGDEGPGAHAKPGLGEGTP
B14: CP-Ser(H105A) (αβ heterodimer) (complex, human)
chain 1: MLTELEKALNSIIDVYHKYSLIKGNFHAVYRDDLKKLLETESPQYIRKKGADVWFKELDINTDGAVNFQEFLILVIKMGVAAHKKSHEESHKE
chain 2: MTSKMSQLERNIETIINTFHQYSVKLGHPDTLNQGEFKELVRKDLQNFLKKENKNEKVIEHIMEDLDTNADKQLSFEEFIMLMARLTWASHEKMHEGDEGPGHHAKPGLGEGTP
B15: CP-Ser(E111A) (αβ heterodimer) (complex, human)
chain 1: MLTELEKALNSIIDVYHKYSLIKGNFHAVYRDDLKKLLETESPQYIRKKGADVWFKELDINTDGAVNFQEFLILVIKMGVAAHKKSHEESHKE
chain 2: MTSKMSQLERNIETIINTFHQYSVKLGHPDTLNQGEFKELVRKDLQNFLKKENKNEKVIEHIMEDLDTNADKQLSFEEFIMLMARLTWASHEKMHEGDEGPGHHHKPGLGAGTP
B16: CP-Ser(K106A) (αβ heterodimer) (complex, human)
chain 1: MLTELEKALNSIIDVYHKYSLIKGNFHAVYRDDLKKLLETESPQYIRKKGADVWFKELDINTDGAVNFQEFLILVIKMGVAAHKKSHEESHKE
chain 2: MTSKMSQLERNIETIINTFHQYSVKLGHPDTLNQGEFKELVRKDLQNFLKKENKNEKVIEHIMEDLDTNADKQLSFEEFIMLMARLTWASHEKMHEGDEGPGHHHAPGLGEGTP
B17: CP-Ser(E96A) (αβ heterodimer) (complex, human)
chain 1: MLTELEKALNSIIDVYHKYSLIKGNFHAVYRDDLKKLLETESPQYIRKKGADVWFKELDINTDGAVNFQEFLILVIKMGVAAHKKSHEESHKE
chain 2: MTSKMSQLERNIETIINTFHQYSVKLGHPDTLNQGEFKELVRKDLQNFLKKENKNEKVIEHIMEDLDTNADKQLSFEEFIMLMARLTWASHEKMHAGDEGPGHHHKPGLGEGTP

Target: the molecule itself
Assay: SEC

Row | Protein | binding result
1 | B1 | binds
2 | B2 | binds
3 | B3 | binds
4 | B4 | binds
5 | B5 | binds
6 | B6 | binds
7 | B7 | binds
8 | B8 | binds
9 | B9 | binds
10 | B10 | binds
11 | B11 | binds
12 | B12 | binds
13 | B13 | binds
14 | B14 | binds
15 | B15 | binds
16 | B16 | binds
17 | B17 | binds
